These results are taken from publication PMC9357085, “Three pairs of surrogate redox partners comparison for Class I cytochrome P450 enzyme activity reconstitution” (Communications Biology, 2022).

In one experiment the target is T1, P450sca-2 (CYP105A3) (Streptomyces carbophilus, UniProt Q59831).
T1 construct: His-tagged, expressed in E. coli, Ni-NTA purified
T1 sequence (Q59831 2-410): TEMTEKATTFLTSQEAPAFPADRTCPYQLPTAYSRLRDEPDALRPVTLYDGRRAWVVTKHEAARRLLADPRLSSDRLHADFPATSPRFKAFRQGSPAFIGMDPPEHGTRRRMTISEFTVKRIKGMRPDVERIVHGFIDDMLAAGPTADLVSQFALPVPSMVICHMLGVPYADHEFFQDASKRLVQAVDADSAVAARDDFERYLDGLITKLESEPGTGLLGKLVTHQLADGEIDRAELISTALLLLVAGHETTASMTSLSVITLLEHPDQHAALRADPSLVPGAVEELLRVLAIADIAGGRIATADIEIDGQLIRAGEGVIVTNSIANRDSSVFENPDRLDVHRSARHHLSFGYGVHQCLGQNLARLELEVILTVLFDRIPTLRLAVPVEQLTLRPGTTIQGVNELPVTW
Put plainly: HPLC/HRMS of products, reconstituted system. It counts as biochemical. Conditions: SelFdx1499/SelFdR0978 as redox partners (1:10:5), NADP+ with regeneration, pH 7.4, 30 °C, 2 h.

Experiment [1] concerns the target T2, SelFdR0978 (Synechococcus elongatus, UniProt Q31PL1).
T2 construct: gene Synpcc7942_0978
Put plainly: FAD released by guanidinium chloride, absorbance at […] nm. It counts as binding. As to conditions: FAD-bound flavoprotein as purified.

Experiment [2] deals with T3, PdR (putidaredoxin reductase) (Pseudomonas putida, UniProt P16640).
T3 construct: gene camA; His-tagged, expressed in E. coli, Ni-NTA purified
T3 sequence (P16640 1-422): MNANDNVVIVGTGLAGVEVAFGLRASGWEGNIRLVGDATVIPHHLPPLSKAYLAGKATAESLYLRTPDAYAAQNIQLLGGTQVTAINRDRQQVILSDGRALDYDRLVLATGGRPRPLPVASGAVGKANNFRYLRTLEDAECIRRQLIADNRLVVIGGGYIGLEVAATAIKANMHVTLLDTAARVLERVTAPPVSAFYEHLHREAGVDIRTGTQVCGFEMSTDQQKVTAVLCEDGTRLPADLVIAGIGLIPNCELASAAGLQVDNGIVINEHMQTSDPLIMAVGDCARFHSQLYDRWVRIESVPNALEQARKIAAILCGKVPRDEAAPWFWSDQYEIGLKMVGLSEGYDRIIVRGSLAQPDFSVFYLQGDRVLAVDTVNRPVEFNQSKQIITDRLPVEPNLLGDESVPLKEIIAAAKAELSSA
The experiment is described as follows: DCIP reduction, absorbance at […] nm. As to conditions: 30 °C. It counts as biochemical.

For experiment [3], the target named is T4, AdR (adrenodoxin reductase) (Bos taurus, UniProt P08165).
T4 construct: gene FDXR; C-terminal His-tag, expressed in E. coli; template plasmid pBAR-bAdR
T4 sequence (P08165 33-492): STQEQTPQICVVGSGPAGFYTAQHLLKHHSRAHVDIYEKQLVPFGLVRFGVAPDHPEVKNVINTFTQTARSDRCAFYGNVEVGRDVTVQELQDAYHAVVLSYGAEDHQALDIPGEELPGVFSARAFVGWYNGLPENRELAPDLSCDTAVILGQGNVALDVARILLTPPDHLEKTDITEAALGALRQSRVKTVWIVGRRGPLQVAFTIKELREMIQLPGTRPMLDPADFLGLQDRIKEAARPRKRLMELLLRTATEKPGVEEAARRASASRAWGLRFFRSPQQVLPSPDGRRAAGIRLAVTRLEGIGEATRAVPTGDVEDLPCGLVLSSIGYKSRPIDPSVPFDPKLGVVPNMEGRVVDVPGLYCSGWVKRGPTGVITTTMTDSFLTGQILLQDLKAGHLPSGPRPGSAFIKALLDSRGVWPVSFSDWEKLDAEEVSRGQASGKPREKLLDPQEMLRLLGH
Put plainly: DCIP reduction, absorbance at […] nm. The format is biochemical. Conditions: 30 °C.

Experiment [4] concerns the target T2, SelFdR0978. Put plainly: DCIP reduction, absorbance at […] nm. The format is biochemical. Conditions: 30 °C.
Experiment [5] addresses plastidic-type ferredoxin reductase SelFdR0978 from Synechococcus elongatus PCC 7942 (Synechococcus elongatus PCC 7942).
In experiment [6] the target is T5, Bovine adrenodoxin reductase (bovine) (UniProt P08165).
T5 sequence: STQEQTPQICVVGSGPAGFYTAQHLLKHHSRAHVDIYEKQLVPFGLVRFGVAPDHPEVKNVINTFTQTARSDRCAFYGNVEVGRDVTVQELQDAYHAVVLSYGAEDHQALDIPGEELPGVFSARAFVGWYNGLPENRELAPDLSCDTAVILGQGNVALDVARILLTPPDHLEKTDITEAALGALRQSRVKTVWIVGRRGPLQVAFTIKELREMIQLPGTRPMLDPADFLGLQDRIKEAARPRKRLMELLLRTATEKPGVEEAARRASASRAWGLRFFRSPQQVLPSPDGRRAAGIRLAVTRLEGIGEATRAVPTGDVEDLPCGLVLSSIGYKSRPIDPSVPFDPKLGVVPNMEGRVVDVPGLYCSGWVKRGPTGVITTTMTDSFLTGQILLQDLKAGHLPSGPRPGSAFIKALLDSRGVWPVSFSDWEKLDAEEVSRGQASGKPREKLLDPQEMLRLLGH

Experiment [7] has as its target plastidic-type ferredoxin reductase SelFdR0978 from Synechococcus elongatus PCC 7942 (Synechococcus elongatus PCC 7942). This is another data set of the same source.
For experiment [8], the target named is T6, putidaredoxin reductase from Pseudomonas putida (Pseudomonas putida) (UniProt P16640).
T6 sequence: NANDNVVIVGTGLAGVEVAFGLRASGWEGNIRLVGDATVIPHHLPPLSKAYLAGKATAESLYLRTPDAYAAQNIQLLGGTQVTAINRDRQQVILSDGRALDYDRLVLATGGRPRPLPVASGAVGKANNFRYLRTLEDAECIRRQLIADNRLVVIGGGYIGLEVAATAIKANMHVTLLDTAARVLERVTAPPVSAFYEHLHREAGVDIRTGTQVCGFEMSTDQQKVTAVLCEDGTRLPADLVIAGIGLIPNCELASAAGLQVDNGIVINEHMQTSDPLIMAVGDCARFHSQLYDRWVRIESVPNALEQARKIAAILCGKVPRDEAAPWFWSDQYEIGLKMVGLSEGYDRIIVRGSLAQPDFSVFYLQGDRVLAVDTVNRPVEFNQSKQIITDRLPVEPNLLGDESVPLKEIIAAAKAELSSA

Experiment [9] deals with T5, Bovine adrenodoxin reductase (bovine). This is another data set of the same source.
The target of another experiment is T7, EpoK (CYP167A1) (Sorangium cellulosum, UniProt Q9KIZ4).
T7 construct: His-tagged, expressed in E. coli (general P450 statement)
T7 sequence (Q9KIZ4 whole entry): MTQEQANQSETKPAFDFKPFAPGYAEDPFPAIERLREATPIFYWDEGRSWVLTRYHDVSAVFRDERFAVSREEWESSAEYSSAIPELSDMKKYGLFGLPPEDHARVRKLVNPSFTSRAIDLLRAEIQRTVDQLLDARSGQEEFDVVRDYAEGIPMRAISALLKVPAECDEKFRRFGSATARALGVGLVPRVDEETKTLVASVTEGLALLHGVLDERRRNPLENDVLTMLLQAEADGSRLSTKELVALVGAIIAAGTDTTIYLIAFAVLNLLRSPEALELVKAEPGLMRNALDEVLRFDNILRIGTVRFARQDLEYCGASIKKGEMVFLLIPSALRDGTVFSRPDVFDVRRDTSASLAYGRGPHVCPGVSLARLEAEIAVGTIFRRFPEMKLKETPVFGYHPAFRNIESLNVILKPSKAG
Put plainly: conversion assay, reconstituted system. It counts as biochemical. Conditions: SelFdx1499/SelFdR0978 as redox partners.

Experiment [10] concerns the target T6, putidaredoxin reductase from Pseudomonas putida (Pseudomonas putida). This is another data set of the same source.
Setting [11] is: electron acceptor, 1 mM NADPH or NADH.
Setting [12] is: electron donor at 1 mM, DCIP as acceptor.

T2 sequence (Q31PL1 1-403): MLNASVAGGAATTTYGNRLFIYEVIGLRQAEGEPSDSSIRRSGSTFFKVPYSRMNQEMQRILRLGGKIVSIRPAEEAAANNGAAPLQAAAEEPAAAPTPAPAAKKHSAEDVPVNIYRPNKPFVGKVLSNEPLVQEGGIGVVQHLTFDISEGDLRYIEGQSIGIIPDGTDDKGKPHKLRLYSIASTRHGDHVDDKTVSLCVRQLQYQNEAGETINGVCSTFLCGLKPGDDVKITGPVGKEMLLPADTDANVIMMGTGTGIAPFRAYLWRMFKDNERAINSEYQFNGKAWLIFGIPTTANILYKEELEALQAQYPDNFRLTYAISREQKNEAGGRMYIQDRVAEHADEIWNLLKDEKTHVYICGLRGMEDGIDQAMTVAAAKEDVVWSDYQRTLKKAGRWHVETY

Take `CC[C@H](C)C(=O)O[C@H]1CCC=C2C=C[C@H](C)[C@H](CC[C@@H](O)C[C@@H](O)CC(=O)O)[C@H]21`: on P450sca-2 (CYP105A3), the “HPLC/HRMS of products, reconstituted system” value is “P450sca-2 produced pravastatin as the main product in all positive reactions”.

Take `Cc1cc2nc3c(=O)[nH]c(=O)nc-3n(C[C@H](O)[C@H](O)[C@H](O)COP(=O)(O)OP(=O)(O)OC[C@H]3O[C@@H](n4cnc5c(N)ncnc54)[C@H](O)[C@@H]3O)c2cc1C` [FAD]: the “FAD released by guanidinium chloride, absorbance at 450 nm” value on SelFdR0978 [1] is “extinction coefficients of the flavin-bound SelFdR0978”.

Turning to `O=C1C(Cl)=CC(=Nc2ccc(O)cc2)C=C1Cl` [DCIP], the “DCIP reduction, absorbance at 600 nm” value was “SelFdR0978 was more efficient in DCIP reduction than both AdR and PdR” in [2] (setting [11]); “SelFdR0978 was more efficient in DCIP reduction than both AdR and PdR” in experiment [3] (setting [11]); “SelFdR0978 was more efficient in DCIP reduction than both AdR and PdR” at SelFdR0978 [4] (setting [11]).

For “Fe2S2 ferredoxin SelFdx1499 from Synechococcus elongatus PCC 7942 (natural protein)”, the Km for the redoxin in cyt c reduction (NAD(P)H, 1 nM FdR, 0-40 uM Fdx, 30 uM cyt c) in experiment [5] was found to be 14.2 µM. Moreover, the conversion rate of YC-17 by PikC (1 uM P450, 10 uM Fdx, 5 uM FdR), wild-type reference in experiment [6] worked out at 30.1%; in experiment [7], 99.1%; in experiment [8], 24.7%.

Consider `NC(=O)C1=CN([C@@H]2O[C@H](COP(=O)(O)OP(=O)(O)OC[C@H]3O[C@@H](n4cnc5c(N)ncnc54)[C@H](OP(=O)(O)O)[C@@H]3O)[C@@H](O)[C@H]2O)C=CC1` [NADPH], for which the “DCIP reduction, absorbance at 600 nm” value is recorded as “AdR only exhibited a slightly increased activity with NADPH than with NADH” in [3] (setting [12]) and “SelFdR0978 showed a strong preference for NADPH over NADH” on SelFdR0978 [4] (setting [12]).

Regarding “Bovine adrenodoxin Adx(4-108) (domain or fragment)”, the Km for the redoxin in cyt c reduction (NAD(P)H, 1 nM FdR, 0-40 uM Fdx, 30 uM cyt c) in experiment [9] was found to be 14.6 µM. For the same molecule, the conversion rate of YC-17 by PikC (1 uM P450, 10 uM Fdx, 5 uM FdR), wild-type reference in [6] amounted to 63.8%; in experiment [7], 15.6%; in [8], 16.5%.

Regarding `NC(=O)C1=CN([C@@H]2O[C@H](COP(=O)(O)OP(=O)(O)OC[C@H]3O[C@@H](n4cnc5c(N)ncnc54)[C@H](O)[C@@H]3O)[C@@H](O)[C@H]2O)C=CC1` [NADH], in experiment [2] (setting [12]), the “DCIP reduction, absorbance at 600 nm” value is listed as “PdR preferred NADH to NADPH”.

Regarding `C/C1=C/C[C@@H](/C(C)=C/c2csc(C)n2)OC(=O)C[C@H](O)C(C)(C)C(=O)[C@H](C)[C@@H](O)[C@@H](C)CCC1` [epothilone D], on EpoK (CYP167A1), the “conversion assay, reconstituted system” value is “EpoK catalyzes the epoxidation of C12-C13 double bond in epothilone D to form epothilone B”.

B1: putidaredoxin from Pseudomonas putida (natural protein)
chain: SKVVYVSHDGTRRELDVADGVSLMQAAVSNGIYDIVGDCGGSASCATCHVYVNEAFTDKVPAANEREIGMLECVTAELKPNSRLCCQIIMTPELDGIVVDVPDRQW
B1: the Km for the redoxin in cyt c reduction (NAD(P)H, 1 nM FdR, 0-40 uM Fdx, 30 uM cyt c) in experiment [10] is 22.1 µM. The values for the conversion rate of YC-17 by PikC (1 uM P450, 10 uM Fdx, 5 uM FdR), wild-type reference in [6], in [7] and in experiment [8] were 0%, 0% and 15.6%, respectively.

B2: Adx-M1 (domain or fragment)
chain: EDKITVHFINRDGETLTTKGKIGDALLDVVVQNNLDIDGFGACEGTLACSTCHLIFEQHIFEKLEAIADEEAAMLALAYGLTDRSRLGCQICLTKAMDNMTVRVP
Consider B2, for which the conversion rate of YC-17 by PikC (1 uM P450, 10 uM Fdx, 5 uM FdR) in [7] worked out at 9.2%.

B3: Adx-M2 (domain or fragment)
chain: EDKITVHFINRDGETLTTKGKIGDSLLDVVVQNNLDIAGFGACAGTAACSTCHLIFEQHIFEKLEAITDEENDMLALAYGLTDRSRLGCQICLTKAMDNMTVRVP
Consider B3, for which, in experiment [6], the conversion rate of YC-17 by PikC (1 uM P450, 10 uM Fdx, 5 uM FdR) is 67.8%.

B4: Adx-M3 (domain or fragment)
chain: EDKITVHFINRDGETLTTKGKIGDSLLDVVVQNNLDIAAFGLCEGTLACSTCHLIFEQHIFEKLEAITDEENDMLDLAYGLTDRSRLGCQICLTKAMDNMTVRVP
In experiment [8], B4 had a conversion rate of YC-17 by PikC (1 uM P450, 10 uM Fdx, 5 uM FdR) of 7.2%.
